In article PMC6712834, “SUMOylation regulates USP5-Cav3.2 calcium channel interactions” (Molecular Brain, 2019):

Target: T1, Cav3.2-GFP tagged calcium channel (human, UniProt O95180 1-2353)
T1 construct: also called Cav3.2 T-type calcium channel; source: tsA-201 cells, transfected (lipofectamine 2000), in lysate; not shown: GFP, C-terminal, kept
Test: co-IP; tsA-201 cells co-expressing Cav3.2-GFP and mCherry-USP5 (WT or K113R); lysed in modified RIPA buffer (50 mM Tris, 100 mM NaCl, 0.2% Triton X-100, 0.2% NP-40, 10 mM EDTA, pH 7.5); Cav3.2-GFP precipitated with anti-GFP antibody and Protein G/A beads overnight at 4 °C; blot probed with mCherry antibody; densitometry
Settings: partners not purified

T1 sequence (O95180 whole entry): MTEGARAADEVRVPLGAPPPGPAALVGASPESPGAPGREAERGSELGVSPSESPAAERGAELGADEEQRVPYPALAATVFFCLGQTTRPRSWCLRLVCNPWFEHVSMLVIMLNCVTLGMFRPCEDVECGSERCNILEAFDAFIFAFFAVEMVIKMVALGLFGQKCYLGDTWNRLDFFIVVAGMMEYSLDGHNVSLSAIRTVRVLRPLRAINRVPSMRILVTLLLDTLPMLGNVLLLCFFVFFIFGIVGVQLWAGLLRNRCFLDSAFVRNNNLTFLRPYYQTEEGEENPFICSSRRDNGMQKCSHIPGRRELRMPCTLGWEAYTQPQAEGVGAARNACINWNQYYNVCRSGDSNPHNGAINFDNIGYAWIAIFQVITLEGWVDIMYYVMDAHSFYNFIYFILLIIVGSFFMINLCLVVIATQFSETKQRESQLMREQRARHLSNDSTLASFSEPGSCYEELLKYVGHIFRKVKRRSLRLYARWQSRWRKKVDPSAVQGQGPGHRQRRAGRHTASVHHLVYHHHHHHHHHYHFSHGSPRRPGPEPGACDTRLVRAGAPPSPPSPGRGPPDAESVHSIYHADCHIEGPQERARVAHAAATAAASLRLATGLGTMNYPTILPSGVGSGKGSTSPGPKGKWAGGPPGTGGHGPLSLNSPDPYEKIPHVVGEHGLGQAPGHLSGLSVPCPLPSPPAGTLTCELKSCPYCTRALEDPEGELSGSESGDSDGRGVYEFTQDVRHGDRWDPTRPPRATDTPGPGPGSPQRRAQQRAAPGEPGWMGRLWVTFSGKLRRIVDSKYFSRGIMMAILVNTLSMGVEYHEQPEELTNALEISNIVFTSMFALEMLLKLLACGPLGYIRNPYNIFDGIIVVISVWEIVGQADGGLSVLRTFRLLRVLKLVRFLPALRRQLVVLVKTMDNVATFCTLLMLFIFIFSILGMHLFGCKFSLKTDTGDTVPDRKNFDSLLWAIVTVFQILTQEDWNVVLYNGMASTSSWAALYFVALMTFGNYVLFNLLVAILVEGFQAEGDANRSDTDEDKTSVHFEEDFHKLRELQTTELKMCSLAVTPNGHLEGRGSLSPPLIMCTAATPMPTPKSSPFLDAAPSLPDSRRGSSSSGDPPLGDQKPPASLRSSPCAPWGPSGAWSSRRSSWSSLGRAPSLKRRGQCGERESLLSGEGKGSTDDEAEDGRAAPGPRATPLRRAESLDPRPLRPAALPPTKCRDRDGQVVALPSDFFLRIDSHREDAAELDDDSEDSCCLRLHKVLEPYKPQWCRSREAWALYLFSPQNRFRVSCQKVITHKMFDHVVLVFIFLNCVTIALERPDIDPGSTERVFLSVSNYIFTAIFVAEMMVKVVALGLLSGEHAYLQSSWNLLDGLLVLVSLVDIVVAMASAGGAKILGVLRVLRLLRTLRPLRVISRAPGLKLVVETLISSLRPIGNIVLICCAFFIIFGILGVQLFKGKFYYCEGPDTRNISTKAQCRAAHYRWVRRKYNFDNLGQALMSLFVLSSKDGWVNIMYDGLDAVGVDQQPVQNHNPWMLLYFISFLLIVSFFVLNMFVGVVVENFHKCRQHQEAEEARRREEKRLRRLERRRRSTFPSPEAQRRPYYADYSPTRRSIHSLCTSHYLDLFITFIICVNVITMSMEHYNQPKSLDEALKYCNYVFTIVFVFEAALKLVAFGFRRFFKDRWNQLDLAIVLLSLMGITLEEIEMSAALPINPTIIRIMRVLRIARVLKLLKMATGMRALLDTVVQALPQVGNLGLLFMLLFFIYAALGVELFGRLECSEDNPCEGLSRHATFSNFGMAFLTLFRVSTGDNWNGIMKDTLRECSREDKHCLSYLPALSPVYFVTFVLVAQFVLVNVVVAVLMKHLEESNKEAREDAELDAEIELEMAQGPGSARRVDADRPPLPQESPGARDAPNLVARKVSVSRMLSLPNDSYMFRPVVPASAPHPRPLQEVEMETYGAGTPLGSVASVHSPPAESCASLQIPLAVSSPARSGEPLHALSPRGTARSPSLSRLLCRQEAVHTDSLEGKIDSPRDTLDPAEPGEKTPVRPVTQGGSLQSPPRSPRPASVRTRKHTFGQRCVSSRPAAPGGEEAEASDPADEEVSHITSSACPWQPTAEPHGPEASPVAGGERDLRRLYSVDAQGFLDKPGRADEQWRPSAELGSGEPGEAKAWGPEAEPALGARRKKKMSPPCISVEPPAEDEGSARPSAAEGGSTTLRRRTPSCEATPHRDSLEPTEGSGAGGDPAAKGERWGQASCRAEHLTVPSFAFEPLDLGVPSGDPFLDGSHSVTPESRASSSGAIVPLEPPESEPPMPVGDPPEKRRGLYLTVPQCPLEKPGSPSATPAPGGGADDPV

B1: mCherry tagged USP5-K113R mutant (enzyme, human, UniProt P45974-1 1-858, looked up)
chain: MAELSEEALLSVLPTIRVPKAGDRVHKDECAFSFDTPESEGGLYICMNTFLGFGKQYVERHFNKTGQRVYLHLRRTRRPKEEDPATGTGDPPRKKPTRLAIGVEGGFDLSEERFELDEDVKIVILPDYLEIARDGLGGLPDIVRDRVTSAVEALLSADSASRKQEVQAWDGEVRQVSKHAFSLKQLDNPARIPPCGWKCSKCDMRENLWLNLTDGSILCGRRYFDGSGGNNHAVEHYRETGYPLAVKLGTITPDGADVYSYDEDDMVLDPSLAEHLSHFGIDMLKMQKTDKTMTELEIDMNQRIGEWELIQESGVPLKPLFGPGYTGIRNLGNSCYLNSVVQVLFSIPDFQRKYVDKLEKIFQNAPTDPTQDFSTQVAKLGHGLLSGEYSKPVPESGDGERVPEQKEVQDGIAPRMFKALIGKGHPEFSTNRQQDAQEFFLHLINMVERNCRSSENPNEVFRFLVEEKIKCLATEKVKYTQRVDYIMQLPVPMDAALNKEELLEYEEKKRQAEEEKMALPELVRAQVPFSSCLEAYGAPEQVDDFWSTALQAKSVAVKTTRFASFPDYLVIQIKKFTFGLDWVPKKLDVSIEMPEELDISQLRGTGLQPGEEELPDIAPPLVTPDEPKGSLGFYGNEDEDSFCSPHFSSPTSPMLDESVIIQLVEMGFPMDACRKAVYYTGNSGAEAAMNWVMSHMDDPDFANPLILPGSSGPGSTSAAADPPPEDCVTTIVSMGFSRDQALKALRATNNSLERAVDWIFSHIDDLDAEAAMDISEGRSAADSISESVPVGPKVRDGPGKYQLFAFISHMGTSTMCGHYVCHIKKEGRWVIYNDQKVCASEKPPKDLGYIYFYQRVAS
notes: Homo sapiens ubiquitin specific peptidase 5 (USP5), open reading frame of GenBank NM_001098536 in pcDNA3.1, point mutant made by PCR; also called SUMO-resistant USP5-K113R; SUMO2/3 resistant USP5-K113R mutant; source: tsA-201 cells, transfected (lipofectamine 2000), in lysate; not shown: mCherry, N-terminal, kept
fold change of co-precipitated amount against USP5-WT: ~2.2 fold
